Targets include DLG1_2, Q12959; DLG2_2, Q15700; DLG2_3, Q15700; HTRA1, Q92743; IL16_3, Q14005; MAGI2_5, Q86UL8; MAST1, Q9Y2H9; NOS1, P29475; PICK1, Q9NRD5; PTPN3, P26045; TJP1_2, Q07157.
Holding throughout (assay): holdup assay
What all share (set-up): key: below the threshold = too weak to quantify, mostly under pKd 3.1 to 4
What all share (conditions): plain residues with an end cap or a label only (N-terminal biotin on a linker: ado-ado)

The next assay concerns the target T1, APBA2_2, Q99767.
T1 sequence (Q99767 654-744, limits assumed, looked up): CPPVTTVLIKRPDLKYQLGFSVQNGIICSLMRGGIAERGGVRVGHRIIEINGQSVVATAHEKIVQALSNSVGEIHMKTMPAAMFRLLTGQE

The next assay deals with T2, ARHGAP21, Q5T5U3.
T2 sequence (Q5T5U3 45-169, limits assumed, looked up): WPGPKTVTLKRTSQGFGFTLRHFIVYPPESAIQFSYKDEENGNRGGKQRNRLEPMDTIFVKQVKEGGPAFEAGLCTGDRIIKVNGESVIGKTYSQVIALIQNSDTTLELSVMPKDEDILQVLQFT

The next assay concerns the target T3, DFNB31_2, Q9P202.
T3 sequence (Q9P202 274-371, limits assumed, looked up): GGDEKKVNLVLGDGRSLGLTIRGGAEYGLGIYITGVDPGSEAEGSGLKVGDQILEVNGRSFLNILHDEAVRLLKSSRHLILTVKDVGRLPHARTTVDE

The target in the next assay is T4, DLG3_1, Q92796.
T4 sequence (Q92796 125-227, limits assumed, looked up): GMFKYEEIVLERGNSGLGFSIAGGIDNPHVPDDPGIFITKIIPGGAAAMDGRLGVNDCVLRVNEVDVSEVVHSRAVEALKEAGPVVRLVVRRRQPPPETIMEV

In a further assay the target is T5, LIN7A, O14910.
T5 sequence (O14910 103-200, limits assumed, looked up): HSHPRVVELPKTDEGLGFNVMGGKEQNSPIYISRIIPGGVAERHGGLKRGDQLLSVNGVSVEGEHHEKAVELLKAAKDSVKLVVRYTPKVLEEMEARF

The next assay deals with T6, LRRC7, Q96NW7.
T6 sequence (Q96NW7 1440-1537, limits assumed, looked up): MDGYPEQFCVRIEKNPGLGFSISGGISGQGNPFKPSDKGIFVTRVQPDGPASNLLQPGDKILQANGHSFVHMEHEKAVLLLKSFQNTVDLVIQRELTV

The next assay addresses T7, MPDZ_10, O75970.
T7 sequence (O75970 1624-1722, limits assumed, looked up): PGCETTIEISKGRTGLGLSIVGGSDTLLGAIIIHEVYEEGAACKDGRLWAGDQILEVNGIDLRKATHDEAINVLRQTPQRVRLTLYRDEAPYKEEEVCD

For the next assay, the target named is T8, MPDZ_12, O75970.
T8 sequence (O75970 1857-1958, limits assumed, looked up): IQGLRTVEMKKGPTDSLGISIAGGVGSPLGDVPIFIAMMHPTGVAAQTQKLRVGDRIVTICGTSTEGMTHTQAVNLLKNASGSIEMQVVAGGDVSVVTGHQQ

Another assay has as its target T9, MPDZ_5, O75970.
T9 sequence (O75970 695-796, limits assumed, looked up): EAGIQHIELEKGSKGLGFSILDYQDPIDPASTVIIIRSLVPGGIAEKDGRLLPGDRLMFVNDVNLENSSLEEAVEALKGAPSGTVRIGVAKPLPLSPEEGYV

The target of the next assay is T10, NHERF3_1, Q5T2W1.
T10 sequence (Q5T2W1 4-100, limits assumed, looked up): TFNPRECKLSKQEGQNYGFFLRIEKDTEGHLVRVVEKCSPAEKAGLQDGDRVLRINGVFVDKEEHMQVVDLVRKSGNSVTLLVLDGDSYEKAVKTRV

The next assay has as its target T11, NHERF3_4, Q5T2W1.
T11 sequence (Q5T2W1 373-468, limits assumed, looked up): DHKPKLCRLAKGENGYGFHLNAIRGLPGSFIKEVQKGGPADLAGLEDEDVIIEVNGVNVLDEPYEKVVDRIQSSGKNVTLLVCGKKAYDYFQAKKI

In a further assay the target is T12, PDZRN3_1, Q9UPQ7.
T12 sequence (Q9UPQ7 244-349, limits assumed, looked up): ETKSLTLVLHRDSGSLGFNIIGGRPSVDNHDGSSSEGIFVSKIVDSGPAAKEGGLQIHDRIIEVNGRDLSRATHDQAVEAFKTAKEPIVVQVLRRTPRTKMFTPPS

The target in another assay is T13, TX1BP3, O14907.
T13 sequence (O14907 10-122, limits assumed, looked up): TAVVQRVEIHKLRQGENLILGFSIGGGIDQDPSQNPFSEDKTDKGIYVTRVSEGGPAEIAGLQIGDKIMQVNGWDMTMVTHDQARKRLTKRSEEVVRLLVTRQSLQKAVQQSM

This passage reports pKd results from paper PMC9482650, “Quantitative fragmentomics allow affinity mapping of interactomes” (Nature Communications, 2022).

Sequence of MAST1, Q9Y2H9 (Q9Y2H9 962-1065): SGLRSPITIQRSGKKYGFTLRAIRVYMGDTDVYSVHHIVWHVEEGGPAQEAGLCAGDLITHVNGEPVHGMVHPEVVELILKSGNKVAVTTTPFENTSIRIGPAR
Sequence of HTRA1, Q92743 (Q92743 360-477): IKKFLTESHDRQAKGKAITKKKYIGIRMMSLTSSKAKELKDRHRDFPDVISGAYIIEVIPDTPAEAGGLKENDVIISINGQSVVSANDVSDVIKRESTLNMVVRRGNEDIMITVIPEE
Sequence of IL16_3, Q14005 (Q14005 1107-1207): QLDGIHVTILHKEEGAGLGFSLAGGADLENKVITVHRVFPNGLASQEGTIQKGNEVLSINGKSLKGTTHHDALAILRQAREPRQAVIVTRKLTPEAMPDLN
Sequence of MAGI2_5, Q86UL8 (Q86UL8 915-1017): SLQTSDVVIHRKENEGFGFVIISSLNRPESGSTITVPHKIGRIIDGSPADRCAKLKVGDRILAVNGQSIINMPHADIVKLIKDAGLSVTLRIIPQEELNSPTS
Sequence of TJP1_2, Q07157 (Q07157 181-274): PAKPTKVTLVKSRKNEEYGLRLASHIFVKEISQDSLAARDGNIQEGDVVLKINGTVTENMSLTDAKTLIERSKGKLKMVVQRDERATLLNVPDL
Sequence of PTPN3, P26045 (P26045 505-587): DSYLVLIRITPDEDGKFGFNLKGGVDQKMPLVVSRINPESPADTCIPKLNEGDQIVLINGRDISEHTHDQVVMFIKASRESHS
Sequence of NOS1, P29475 (P29475 9-101): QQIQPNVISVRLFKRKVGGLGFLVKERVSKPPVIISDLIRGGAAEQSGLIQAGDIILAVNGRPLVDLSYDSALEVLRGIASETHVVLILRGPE
Sequence of PICK1, Q9NRD5 (Q9NRD5 17-115): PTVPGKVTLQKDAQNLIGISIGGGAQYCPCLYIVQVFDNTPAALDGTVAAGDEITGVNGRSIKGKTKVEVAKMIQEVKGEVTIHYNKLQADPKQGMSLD
Sequence of DLG1_2, Q12959 (Q12959 314-412): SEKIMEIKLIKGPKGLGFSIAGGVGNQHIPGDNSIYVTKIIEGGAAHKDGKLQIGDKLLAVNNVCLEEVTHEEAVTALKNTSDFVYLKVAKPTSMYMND

B1: BPIFA2, Q96DR5 (peptide)
chain: QHKTQLQTLI
As a reminder, the pKd is −log10 of the Kd, conventionally taken in molar units. Turning to B1, the negative-log Kd (pKd) entry was “below the threshold” with APBA2_2, Q99767; 4.01 in the assay with ARHGAP21, Q5T5U3; “below the threshold” in the assay with DFNB31_2, Q9P202; 4.88 with DLG1_2, Q12959; 4.32 with DLG2_2, Q15700; “below the threshold” with DLG2_3, Q15700. Besides, the pKd with DLG3_1, Q92796 is 3.68; with HTRA1, Q92743, 4.06; with IL16_3, Q14005, “below the threshold”; with LIN7A, O14910, “below the threshold”; with LRRC7, Q96NW7 it was “below the threshold”; with MAGI2_5, Q86UL8, 4.78. In addition, the pKd entry in the assay with MAST1, Q9Y2H9 is “below the threshold”; with MPDZ_10, O75970 it was “below the threshold”; with MPDZ_12, O75970, “below the threshold”; in the assay with MPDZ_5, O75970 it was “below the threshold”; with NHERF3_1, Q5T2W1, 5.29; with NHERF3_4, Q5T2W1, 3.48. For the same molecule, the negative logarithm of the Kd (pKd) in the assay with NOS1, P29475 was 4.2; with PDZRN3_1, Q9UPQ7 it was 3.65; with PICK1, Q9NRD5 it was “below the threshold”; with PTPN3, P26045, 3.99; with TJP1_2, Q07157, “below the threshold”; with TX1BP3, O14907, 3.79.

B2: TRAF7, Q6Q0C0 (peptide)
chain: VDSTVKVWTC
With B2, the pKd entry in the assay with APBA2_2, Q99767 is “below the threshold”; in the assay with ARHGAP21, Q5T5U3, 4.36; with DFNB31_2, Q9P202, “below the threshold”; with DLG1_2, Q12959, 3.84; with DLG2_2, Q15700, 3.72; in the assay with DLG2_3, Q15700 it was 3.73. Also, the pKd result in the assay with DLG3_1, Q92796 is “below the threshold”; with HTRA1, Q92743, 5.61; with IL16_3, Q14005, “below the threshold”; with LIN7A, O14910, “below the threshold”; with LRRC7, Q96NW7, “below the threshold”; with MAGI2_5, Q86UL8, “below the threshold”. For the same molecule, the pKd result is “below the threshold” in the assay with MAST1, Q9Y2H9; “below the threshold” with MPDZ_10, O75970; 3.52 with MPDZ_12, O75970; “below the threshold” in the assay with MPDZ_5, O75970; “below the threshold” in the assay with NHERF3_1, Q5T2W1; “below the threshold” with NHERF3_4, Q5T2W1. Besides, the pKd entry in the assay with NOS1, P29475 was “below the threshold”; with PDZRN3_1, Q9UPQ7 it was “below the threshold”; with PICK1, Q9NRD5 it was “below the threshold”; with PTPN3, P26045, 4.13; in the assay with TJP1_2, Q07157 it was “below the threshold”; with TX1BP3, O14907, “below the threshold”.

B3: ABCA7, Q8IZY2 (peptide)
chain: DDPSTAETVL
Turning to B3, the pKd entry was “below the threshold” with APBA2_2, Q99767; 3.8 in the assay with ARHGAP21, Q5T5U3; “below the threshold” with DFNB31_2, Q9P202; 3.78 with DLG1_2, Q12959; “below the threshold” in the assay with DLG2_2, Q15700; 3.88 with DLG2_3, Q15700. In addition, the negative logarithm of the Kd (pKd) entry is “below the threshold” with DLG3_1, Q92796; 4.64 in the assay with HTRA1, Q92743; “below the threshold” with IL16_3, Q14005; “below the threshold” with LIN7A, O14910; “below the threshold” with LRRC7, Q96NW7; 4.27 in the assay with MAGI2_5, Q86UL8. The negative logarithm of the Kd (pKd) in the assay with MAST1, Q9Y2H9 was 4.88; with MPDZ_10, O75970, “below the threshold”; with MPDZ_12, O75970, “below the threshold”; with MPDZ_5, O75970 it was “below the threshold”; in the assay with NHERF3_1, Q5T2W1, 4.64; with NHERF3_4, Q5T2W1 it was “below the threshold”. The negative-log Kd (pKd) with NOS1, P29475 is 3.52; with PDZRN3_1, Q9UPQ7, 4.09; with PICK1, Q9NRD5 it was “below the threshold”; with PTPN3, P26045, 4.83; with TJP1_2, Q07157 it was “below the threshold”; with TX1BP3, O14907 it was “below the threshold”.

B4: CTNNA1, P35221 (peptide)
chain: LSEFKAMDSI
Take B4: the pKd result was “below the threshold” with APBA2_2, Q99767; 4.01 with ARHGAP21, Q5T5U3; “below the threshold” in the assay with DFNB31_2, Q9P202; “below the threshold” with DLG1_2, Q12959; “below the threshold” in the assay with DLG2_2, Q15700; “below the threshold” with DLG2_3, Q15700. Moreover, the pKd entry is on record as “below the threshold” with DLG3_1, Q92796; “below the threshold” in the assay with HTRA1, Q92743; “below the threshold” in the assay with IL16_3, Q14005; “below the threshold” with LIN7A, O14910; “below the threshold” in the assay with LRRC7, Q96NW7; “below the threshold” with MAGI2_5, Q86UL8. For the same molecule, the pKd entry in the assay with MAST1, Q9Y2H9 is listed as “below the threshold”; with MPDZ_10, O75970 it was “below the threshold”; with MPDZ_12, O75970, “below the threshold”; in the assay with MPDZ_5, O75970, “below the threshold”; with NHERF3_1, Q5T2W1, “below the threshold”; with NHERF3_4, Q5T2W1 it was “below the threshold”. Also, the negative logarithm of the Kd (pKd) entry was “below the threshold” with NOS1, P29475; “below the threshold” with PDZRN3_1, Q9UPQ7; 4.08 with PICK1, Q9NRD5; 3.97 with PTPN3, P26045; “below the threshold” in the assay with TJP1_2, Q07157; 3.47 in the assay with TX1BP3, O14907.
